This passage reports thermal stability score results from the supplement of paper PMC5998384.

The series relates to HeLa Kyoto. The series is described as follows: thermal stability score vs G1/S (z-score of summed log2 fold changes over temperatures); higher = more thermally stable than in G1/S.
Where [1] appears, read: cell cycle stage: early G1 (4.5 h after nocodazole release).
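Also: synchronized HeLa Kyoto cells, proteins quantified by TMT10plex mass spectrometry, three biological replicates, mitosis taken 0.5 h after nocodazole release, G1/S directly after double thymidine block.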

Turning to “MWAFSELPMPLLINLIVSLLGFVATVTLIPAFRGHFIAARLCGQDLNKTSRQQIPESQGVISGAVFLIILFCFIPFPFLNCFVKEQCKAFPHHEFVALIGALLAICCMIFLGFADDVLNLRWRHKLLLPTAASLPLLMVYFTNFGNTTIVVPKPFRPILGLHLDLGILYYVYMGLLAVFCTNAINILAGINGLEAGQSLVISASIIVFNLVELEGDCRDDHVFSLYFMIPFFFTTLGLLYHNWYPSRVFVGDTFCYFAGMTFAVVGILGHFSKTMLLFFMPQVFNFLYSLPQLLHIIPCPRHRIPRLNIKTGKLEMSYSKFKTKSLSFLGTFILKVAESLQLVTVHQSETEDGEFTECNNMTLINLLLKVLGPIHERNLTLLLLLLQILGSAITFSIRYQLVRLFYDV [DPAGT1]”, the thermal stability score reads like this: under setting [1], -0.912; (cell cycle stage: mitosis) -2.08.

Take “MGPEALSSLLLLLLVASGDADMKGHFDPAKCRYALGMQDRTIPDSDISASSSWSDSTAARHSRLESSDGDGAWCPAGSVFPKEEEYLQVDLQRLHLVALVGTQGRHAGGLGKEFSRSYRLRYSRDGRRWMGWKDRWGQEVISGNEDPEGVVLKDLGPPMVARLVRFYPRADRVMSVCLRVELYGCLWRDGLLSYTAPVGQTMYLSEAVYLNDSTYDGHTVGGLQYGGLGQLADGVVGLDDFRKSQELRVWPGYDYVGWSNHSFSSGYVEMEFEFDRLRAFQAMQVHCNNMHTLGARLPGGVECRFRRGPAMAWEGEPMRHNLGGNLGDPRARAVSVPLGGRVARFLQCRFLFAGPWLLFSEISFISDVVNNSSPALGGTFPPAPWWPPGPPPTNFSSLELEPRGQQPVAKAEGSPTAILIGCLVAIILLLLLIIALMLWRLHWRRLLSKAERRVLEEELTVHLSVPGDTILINNRPGPREPPPYQEPRPRGNPPHSAPCVPNGSALLLSNPAYRLLLATYARPPRGPGPPTPAWAKPTNTQAYSGDYMEPEKPGAPLLPPPPQNSVPHYAEADIVTLQGVTGGNTYAVPALPPGAVGDGPPRVDFPRSRLRFKEKLGEGQFGEVHLCEVDSPQDLVSLDFPLNVRKGHPLLVAVKILRPDATKNARNDFLKEVKIMSRLKDPNIIRLLGVCVQDDPLCMITDYMENGDLNQFLSAHQLEDKAAEGAPGDGQAAQGPTISYPMLLHVAAQIASGMRYLATLNFVHRDLATRNCLVGENFTIKIADFGMSRNLYAGDYYRVQGRAVLPIRWMAWECILMGKFTTASDVWAFGVTLWEVLMLCRAQPFGQLTDEQVIENAGEFFRDQGRQVYLSRPPACPQGLYELMLRCWSRESEQRPPFSQLHRFLAEDALNTV [DDR1]”: the thermal stability score by setting is: under setting [1], 0.0856; (cell cycle stage: mitosis) 0.38.

As for “MSKMPAKKKSCFQITSVTTAQVATSITEDTESLDDPDESRTEDVSSEIFDVSRATDYGPEEVCERSSSEETLNNVGDAETPGTVSPNLLLDGQLAAAAAAPANGGGVVSARSVSGALASTLAAAATSAPAPGAPGGPQLAGSSAGPVTAAPSQPPTTCSSRFRVIKLDHGSGEPYRRGRWTCMEYYERDSDSSVLTRSGDCIRHSSTFDQTAERDSGLGATGGSVVVVVASMQGAHGPESGTDSSLTAVSQLPPSEKMSQPTPAQPQSFSVGQPQPPPPPVGGAVAQSSAPLPPFPGAATGPQPMMAAAQPSQPQGAGPGGQTLPPTNVTLAQPAMSLPPQPGPAVGAPAAQQPQQFAYPQPQIPPGHLLPVQPSGQSEYLQQHVAGLQPPSPAQPSSTGAAASPATAATLPVGTGQNASSVGAQLMGASSQPSEAMAPRTGPAQGGQVAPCQPTGVPPATVGGVVQPCLGPAGAGQPQSVPPPQMGGSGPLSAVPGGPHAVVPGVPNVPAAVPAPSVPSVSTTSVTMPNVPAPLAQSQQLSSHTPVSRSSSIIQHVGLPLAPGTHSAPTSLPQSDLSQFQTQTQPLVGQVDDTRRKSEPLPQPPLSLIAENKPVVKPPVADSLANPLQLTPMNSLATSVFSIAIPVDGDEDRNPSTAFYQAFHLNTLKESKSLWDSASGGGVVAIDNKIEQAMDLVKSHLMYAVREEVEVLKEQIKELVERNSLLERENALLKSLSSNDQLSQLPTQQANPGSTSQQQAVIAQPPQPTQPPQQPNVSSA [TSC22D2]”, the thermal stability score by setting is: under setting [1], 0.461; (cell cycle stage: mitosis) 0.468.
